Results published in publication PMC3416856.

Biological target: T1, KaiC of unphosphorylated initial condition (Synechococcus elongatus) (UniProt Q79PF4)
T1 sequence (chain, unphosphorylated at the start of the incubation): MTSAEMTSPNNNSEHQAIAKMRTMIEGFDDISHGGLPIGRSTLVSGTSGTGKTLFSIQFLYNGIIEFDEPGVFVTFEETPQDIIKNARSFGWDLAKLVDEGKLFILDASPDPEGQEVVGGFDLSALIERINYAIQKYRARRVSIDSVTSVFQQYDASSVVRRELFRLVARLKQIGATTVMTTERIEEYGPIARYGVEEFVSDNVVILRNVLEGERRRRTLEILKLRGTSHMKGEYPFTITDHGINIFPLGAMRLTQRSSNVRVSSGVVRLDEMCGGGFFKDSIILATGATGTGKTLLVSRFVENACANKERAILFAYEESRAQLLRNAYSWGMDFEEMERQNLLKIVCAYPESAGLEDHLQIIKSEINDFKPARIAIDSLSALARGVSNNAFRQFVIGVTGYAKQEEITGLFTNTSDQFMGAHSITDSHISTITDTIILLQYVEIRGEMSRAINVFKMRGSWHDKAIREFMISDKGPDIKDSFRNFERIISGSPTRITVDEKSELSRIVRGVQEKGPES

B1: wild type KaiA (natural protein)
chain: MLSQIAICIWVESTAILQDCQRALSADRYQLQVCESGEMLLEYAQTHRDQIDCLILVAANPSFRAVVQQLCFEGVVVPAIVVGDRDSEDPDEPAKEQLYHSAELHLGIHQLEQLPYQVDAALAEFLRLAPVETMADHIMLMGANHDPELSSQQRDLAQRLQERLGYLGVYYKRDPDRFLRNLPAYESQKLHQAMQTSYREIVLSYFSPNSNLNQSIDNFVNMAFFADVPVTKVVEIHMELMDEFAKKLRVEGRSEDILLDYRLTLIDVIAHLCEMYRRSIPRET
  half-maximum concentration of KaiA for the phosphorylation of KaiC (3.5 µM) at 16 hr, 30°C (SDS-PAGE densitometry, sigmoid fit), against that for the highly phosphorylated initial condition: 5 fold
